In PMC9858708, “Genetic and Molecular Interactions between H^ΔCT, a Novel Allele of the Notch Antagonist Hairless, and the Histone Chaperone Asf1 in Drosophila melanogaster” (Genes, 2023):

T1: Asf1-HA-MBP (full-length Drosophila Asf1) (Drosophila melanogaster, UniProt Q9V464 1-218)
T1 construct: Anti-silencing factor 1 (Asf1), Drosophila melanogaster, full length; HA-tagged region derived by PCR from the pJG4-5 construct; also called Asf-HA; HA-tagged Asf1; source: E. coli UT580, purified (amylose beads); not shown: HA, N-terminal, kept
T1 sequence (looked up): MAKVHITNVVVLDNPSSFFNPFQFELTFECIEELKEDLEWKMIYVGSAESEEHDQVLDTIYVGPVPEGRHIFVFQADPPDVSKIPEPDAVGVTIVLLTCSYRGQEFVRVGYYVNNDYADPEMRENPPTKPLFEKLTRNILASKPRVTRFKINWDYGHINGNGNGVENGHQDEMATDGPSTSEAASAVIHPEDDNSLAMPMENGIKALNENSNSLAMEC

T2: Asf1 (1–154) (D. melanogaster, UniProt Q9V464 1-154)
T2 construct: Anti-silencing factor 1 (Asf1), D. melanogaster, amino acids 1-154; modified pET-14p construct
T2 sequence (looked up): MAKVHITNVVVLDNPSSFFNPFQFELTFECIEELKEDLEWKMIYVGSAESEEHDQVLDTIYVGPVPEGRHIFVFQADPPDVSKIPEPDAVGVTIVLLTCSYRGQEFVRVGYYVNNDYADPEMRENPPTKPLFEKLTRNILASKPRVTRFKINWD


What was measured:
Conditions in all cases: both partners purified
[1] = molecular target: T1, Asf1-HA-MBP (full-length Drosophila …); assay: co-IP; Myc-trap: purified Asf1-HA-MBP or Su(H)-GST mixed 1:1 with NTCTmyc-MBP peptides, about 10 min at 4 °C, 150 mM NaCl, 50 mM Tris pH7.5, 0.1% SDS; Myc-tagged H peptides trapped on anti-Myc nanobody magnetic beads 1 h at 4 °C; Western blot with anti-Myc, anti-HA, anti-GST
[2] = molecular target: T2, Asf1 (1–154); assay: ITC; MicroCal VP-ITC, 25 °C, 20 mM HEPES pH 7.5, 150 mM NaCl; typically 100 μM Hairless in the syringe and 10 μM Asf1 in the cell; one-site binding model
[3] = molecular target: T3, Su(H)-GST fusion protein (Su(H) codons 288–594) (Drosophila melanogaster, UniProt P28159 288-594); assay: co-IP; Myc-trap: purified Asf1-HA-MBP or Su(H)-GST mixed 1:1 with NTCTmyc-MBP peptides, about 10 min at 4 °C, 150 mM NaCl, 50 mM Tris pH7.5, 0.1% SDS; Myc-tagged H peptides trapped on anti-Myc nanobody magnetic beads 1 h at 4 °C; Western blot with anti-Myc, anti-HA, anti-GST
T3 construct: also called GST Su(H); GST-tagged Su(H); source: E. coli UT580, purified (glutathione-sepharose 4B)

[4] = molecular target: T2, Asf1 (1–154); assay: ITC; MicroCal VP-ITC, 25 °C, 20 mM HEPES pH 7.5, 150 mM NaCl; typically 100 μM Hairless in the syringe and 10 μM Asf1 in the cell; one-site binding model; remark: listed apart in the source

T3 sequence (P28159 288-594): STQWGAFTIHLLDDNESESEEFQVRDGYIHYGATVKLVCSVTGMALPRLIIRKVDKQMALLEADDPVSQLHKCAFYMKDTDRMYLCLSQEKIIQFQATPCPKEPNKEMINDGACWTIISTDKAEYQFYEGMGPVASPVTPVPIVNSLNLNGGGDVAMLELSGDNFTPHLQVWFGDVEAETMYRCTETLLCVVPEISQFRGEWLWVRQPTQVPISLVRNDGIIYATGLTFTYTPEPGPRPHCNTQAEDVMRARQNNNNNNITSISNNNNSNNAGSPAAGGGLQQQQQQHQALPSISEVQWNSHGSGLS

binding result [1] | Ka [2] [M⁻¹] | Kd [2] [nM] | dH [2] [kcal/mol] | binding result [3] | stoichiometry N [4] | Binder
binds | – | – | – | binds | – | NTCTmyc-MBP (Hairless Ser 212 - Ile 369) (domain or fragment, Drosophila melanogaster, UniProt Q02308 212-369, looked up, Hairless (H), Drosophila melanogaster, NTCT region Ser 212 - Ile 369; source: E. coli UT580, purified (amylose beads); not shown: Myc, N-terminal, kept) SFDMGRTPISTHGNNSWGGYGGRLQFFKDGKFILELARSKDGDKSGWVSVTRKTFRPPSAATSATVTPTSAVTTAYPKNENSTSLSFSDDNSSIQSSPWQRDQPWKQSRPRRGISKELSLFFHRPRNSTLGRAALRTAARKRRRPHEPLTTSEDQQPI
– | 250000 | 4200 | -8.6 | – | 1 | H (232–358) (domain or fragment, Drosophila melanogaster, UniProt Q02308 232-358, looked up, Hairless (H), Drosophila, residues 232-358; His-SUMO fusion from a modified pET-28b+ vector; also called Hairless 232–358) GGRLQFFKDGKFILELARSKDGDKSGWVSVTRKTFRPPSAATSATVTPTSAVTTAYPKNENSTSLSFSDDNSSIQSSPWQRDQPWKQSRPRRGISKELSLFFHRPRNSTLGRAALRTAARKRRRPHE

Further lines, the binder ahead of its results:

Binder | binding result [1] | Ka [2] [M⁻¹] | Kd [2] [nM] | dH [2] [kcal/mol] | binding result [3] | stoichiometry N [4]
Hairless 315–369 myc-MBP (domain or fragment, Drosophila melanogaster, UniProt Q02308 315-369, looked up, Hairless (H), Drosophila melanogaster, residues 315-369; also called aa 315–369; source: E. coli UT580, purified (amylose beads); not shown: Myc, N-terminal, kept) PWKQSRPRRGISKELSLFFHRPRNSTLGRAALRTAARKRRRPHEPLTTSEDQQPI | binds | – | – | – | – | –
PWKQSRPRRGISKELSLFFHRPRNSTLGRAALRTAARKRRRPHE (domain or fragment, Drosophila melanogaster, UniProt Q02308 315-358, looked up, Hairless (H), Drosophila, residues 315-358; His-SUMO fusion from a modified pET-28b+ vector; also called Hairless 315–358) [H (315–358)] | – | 680000 | 1700 | -8.7 | – | –
